{
  "source": "patent US20250049939A1",
  "about": "(TUBULIS, published 2025)",
  "binders": {"B1": {"name": "Humanized clone 3 of 20D9 (VH3 + VK1) (antibody, human IgG1, kappa)", "heavy": "not shown", "light": "DIQMTQSPSVLSASVGDRVTINCRASQNINKELNWYQQKLGEAPKLLIYNTNNLQSGVPSRFSGSGSGTDYTLTISSLQPEDVATYFCFQHKSWPLTFGSGTKLEIKRTVAAPSVFIFPPSDEQLKSGTASVVCLLNNFYPREAKVQWKVDNALQSGNSQESVTEQDSKDSTYSLSSTLTLSKADYEKHKVYACEVTHQGLSSPVTKSFNRGEC", "notes": "also called candidate #3; #3 mab"}},
  "key": {"[1]": {"molecular_target": "T1, recombinant human FLT3 protein (human, UniProt P36888 27-541)", "T1 construct": "also called recombinant FLT3 protein; human recombinant FLT3 protein (10445-H08H, Sino Biological)", "T1 sequence": "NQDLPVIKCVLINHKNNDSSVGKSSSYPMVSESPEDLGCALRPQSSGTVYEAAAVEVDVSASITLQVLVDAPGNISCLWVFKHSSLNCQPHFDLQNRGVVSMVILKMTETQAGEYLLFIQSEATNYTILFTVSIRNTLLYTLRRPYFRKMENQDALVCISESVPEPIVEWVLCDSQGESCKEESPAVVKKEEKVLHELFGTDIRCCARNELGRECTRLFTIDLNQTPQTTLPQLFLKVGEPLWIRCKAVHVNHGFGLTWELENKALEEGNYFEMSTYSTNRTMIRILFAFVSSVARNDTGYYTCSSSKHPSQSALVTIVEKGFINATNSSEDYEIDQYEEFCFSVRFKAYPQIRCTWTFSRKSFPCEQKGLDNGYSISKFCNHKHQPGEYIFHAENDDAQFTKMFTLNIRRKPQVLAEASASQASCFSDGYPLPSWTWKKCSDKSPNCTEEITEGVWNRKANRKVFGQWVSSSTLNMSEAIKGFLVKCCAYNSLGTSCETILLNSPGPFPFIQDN", "assay": "ELISA with recombinant human FLT3 coated to the plate (results of FIG. 13 summarized)", "description": "Maxisorp plates were coated with human recombinant FLT3 protein (10445-H08H, Sino Biological). […] For detection, Attophos Fluorescent Substrate System (S1000, Promega) was applied. The fluorescence was read with excitation of 405 nm and emission at 500-550 nm. The calculation of the dissociation constant KD was performed using GraphPad Prism version 9.4.0.\nThe 12 clones were subsequently analysed in ELISA assays (FIG. 13). Therefore, recombinant human FLT3 was coated on plates and incubated with the antibody candidates. […] Mean±s.d. of n=3 biological replicates."}, "c-KIT on Ba/F3 cells": {"molecular_target": "T2, c-KIT on Ba/F3 cells (UniProt P10721 26-976, limits assumed)", "T2 construct": "whole, on cells", "T2 sequence (P10721 26-976 limits assumed)": "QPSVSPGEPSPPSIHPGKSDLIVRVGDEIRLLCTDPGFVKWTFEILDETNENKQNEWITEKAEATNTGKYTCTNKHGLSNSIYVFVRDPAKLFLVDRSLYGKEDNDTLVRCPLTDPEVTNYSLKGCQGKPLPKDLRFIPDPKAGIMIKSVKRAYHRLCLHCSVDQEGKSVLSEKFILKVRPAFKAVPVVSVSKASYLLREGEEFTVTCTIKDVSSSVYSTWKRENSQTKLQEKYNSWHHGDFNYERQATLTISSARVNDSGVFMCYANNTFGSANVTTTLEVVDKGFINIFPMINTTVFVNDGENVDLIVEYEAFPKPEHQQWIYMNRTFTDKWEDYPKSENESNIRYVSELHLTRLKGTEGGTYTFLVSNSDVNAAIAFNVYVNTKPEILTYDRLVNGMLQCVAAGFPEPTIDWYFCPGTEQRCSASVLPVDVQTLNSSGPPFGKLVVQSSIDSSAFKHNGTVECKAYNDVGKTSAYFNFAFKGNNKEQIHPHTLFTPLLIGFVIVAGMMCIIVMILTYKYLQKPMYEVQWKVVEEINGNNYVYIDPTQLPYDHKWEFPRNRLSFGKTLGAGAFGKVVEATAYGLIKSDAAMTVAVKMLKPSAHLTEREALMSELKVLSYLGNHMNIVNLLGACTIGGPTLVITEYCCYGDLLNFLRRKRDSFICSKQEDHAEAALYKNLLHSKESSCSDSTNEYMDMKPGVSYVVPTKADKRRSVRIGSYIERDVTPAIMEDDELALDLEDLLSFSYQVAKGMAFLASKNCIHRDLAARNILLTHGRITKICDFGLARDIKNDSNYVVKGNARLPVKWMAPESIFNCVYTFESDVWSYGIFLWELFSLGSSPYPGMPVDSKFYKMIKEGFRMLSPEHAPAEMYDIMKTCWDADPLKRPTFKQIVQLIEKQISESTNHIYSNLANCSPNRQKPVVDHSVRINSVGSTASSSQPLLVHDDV", "assay": "flow cytometry, cell surface binding to Ba/F3 pMIY cells expressing c-KIT, MFI ratio normalized to IgG1, mean ± s.d. of n=3"}, "[2]": {"molecular_target": "T3, rat FLT3 expressed on Ba/F3 cells (rat, UniProt A0A0G2JW59 27-982)", "T3 construct": "whole, on cells", "T3 sequence": "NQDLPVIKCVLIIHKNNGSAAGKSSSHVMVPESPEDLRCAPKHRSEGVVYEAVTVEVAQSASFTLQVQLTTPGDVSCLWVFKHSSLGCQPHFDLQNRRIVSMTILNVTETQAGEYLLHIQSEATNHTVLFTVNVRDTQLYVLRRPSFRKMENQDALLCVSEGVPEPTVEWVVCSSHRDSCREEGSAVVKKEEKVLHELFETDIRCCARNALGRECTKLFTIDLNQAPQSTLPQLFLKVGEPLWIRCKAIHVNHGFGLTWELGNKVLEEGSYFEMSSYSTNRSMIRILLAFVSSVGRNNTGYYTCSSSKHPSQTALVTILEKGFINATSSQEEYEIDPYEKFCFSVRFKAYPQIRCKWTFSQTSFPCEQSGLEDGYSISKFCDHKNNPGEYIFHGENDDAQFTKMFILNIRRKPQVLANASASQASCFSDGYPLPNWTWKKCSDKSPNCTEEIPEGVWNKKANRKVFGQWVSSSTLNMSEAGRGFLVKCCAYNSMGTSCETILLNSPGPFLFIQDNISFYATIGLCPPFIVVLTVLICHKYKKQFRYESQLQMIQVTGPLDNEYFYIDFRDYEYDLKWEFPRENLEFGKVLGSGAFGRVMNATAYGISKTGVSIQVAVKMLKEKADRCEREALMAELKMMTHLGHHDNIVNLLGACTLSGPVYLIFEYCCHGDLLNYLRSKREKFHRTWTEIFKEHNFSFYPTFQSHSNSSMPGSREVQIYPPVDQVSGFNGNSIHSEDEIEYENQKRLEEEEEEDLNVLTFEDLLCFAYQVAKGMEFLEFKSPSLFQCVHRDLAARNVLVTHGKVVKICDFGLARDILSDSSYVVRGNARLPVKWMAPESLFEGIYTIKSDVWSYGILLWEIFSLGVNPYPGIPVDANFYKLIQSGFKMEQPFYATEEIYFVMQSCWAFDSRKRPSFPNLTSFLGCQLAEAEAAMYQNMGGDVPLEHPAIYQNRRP", "assay": "flow cytometry, cell surface binding to Ba/F3 pMIY cells expressing rFLT3wt, MFI ratio normalized to IgG1, mean ± s.d. of n=3"}},
  "data": [
    {"binder": "B1", "values": [
      {"measurement": "Kd", "setting": "[1]", "result": 0.0113, "unit": "µg/mL"},
      {"measurement": "binding result", "setting": "c-KIT on Ba/F3 cells", "result": "no binding"},
      {"measurement": "binding result", "setting": "[2]", "result": "no binding"}
    ]}
  ]
}
